We go through 8 substances from US20200165325A1.

Assay [1] concerns the target gp160 of HIV-1 strain YU2 with a substitution of 458gp120 (HIV-1).
The target of assay [2] is Env (gp120) of HIV-1 strain Du172.17 (HIV-1).
For assay [3], the target named is Env (gp120) of HIV-1 strain 3718.v3.c11 (HIV-1).
For assay [4], the target named is Env (gp120) of HIV-1 strain T255-34 (HIV-1).
For assay [5], the target named is Env (gp120) of HIV-1 strain CAP210.2.00.E8 (HIV-1).
The target of assay [6] is Env (gp120) of HIV-1 strain CAP45.2.00.G3 (HIV-1).
Assay [7] concerns the target Env (gp120) of HIV-1 strain T257-31 (HIV-1).
In assay [8] the target is Env (gp120) of HIV-1 strain ZM214M.PL15 (HIV-1).
Assay [9] addresses Env (gp120) of HIV-1 strain QH0692.42 (HIV-1).
Assay [10] concerns the target Env (gp120) of HIV-1 strain AC10.0.29 (HIV-1).
Assay [11] deals with Env (gp120) of HIV-1 strain SC422661.8 (HIV-1).
Assay [12] deals with Env (gp120) of HIV-1 strain TRO.11 (HIV-1).
The target of assay [13] is Env (gp120) of HIV-1 strain ZM109F.PB4 (HIV-1).
Assay [14] deals with Env (gp120) of HIV-1 strain ZM135M.PL10a (HIV-1).
Assay [15] concerns the target Env (gp120) of HIV-1 strain ZM249M.PL1 (HIV-1).
Assay [16] concerns the target Env (gp120) of HIV-1 strain ZM214M.PL15 (HIV-1). This is another data set of the same source.
Assay [17] has as its target Env (gp120) of HIV-1 strain Du156.12 (HIV-1).
Assay [18] concerns the target Env (gp120) of HIV-1 strain ZM197M.PB7 (HIV-1).
For assay [19], the target named is Env (gp120) of HIV-1 strain ZM53M.PB12 (HIV-1).
Assay [20] addresses Env (gp120) of HIV-1 strain 3016.v5.c45 (HIV-1).
In assay [21] the target is Env (gp120) of HIV-1 strain C2101.c01 (HIV-1).
Assay [22] has as its target HIV-1 Env of strain R2184.c04 (HIV-1).
Assay [23] has as its target HIV-1 Env of strain QH0692.42 (HIV-1).
For assay [24], the target named is HIV-1 Env of strain C1080.c03 (HIV-1).
Assay [25] has as its target HIV-1 Env of strain ZM214M.PL15 (HIV-1).
Assay [26] addresses HIV-1 Env of strain Q842.d12 (HIV-1).
In assay [27] the target is HIV-1 Env of strain 3817.v2.c59 (HIV-1).
In assay [28] the target is HIV-1 Env of strain HIV-16845-2.22 (HIV-1).
Assay [29] has as its target HIV-1 Env of strain ZM214M.PL15.11 (HIV-1).
In assay [30] the target is HIV-1 Env of strain QH0692.42 (HIV-1). The source holds these as a separate data set.
Assay [31] deals with HIV-1 Env of strain AC10.0.29 (HIV-1).
Assay [32] addresses HIV-1 Env of strain CAP45.2.00.G3 (HIV-1).
In assay [33] the target is HIV-1 Env of strain SC422661.8 (HIV-1).
In assay [34] the target is HIV-1 Env of strain T257-31 (HIV-1).
Assay [35] deals with HIV-1 Env of strain TRO.11 (HIV-1).

Like-named read-outs stand apart in the source and are kept apart here. A value given as a limit tells only on which side of the number the result lay.

In assay [1], NIH45-46^G54W IgG (antibody) yielded a neutralization of pseudovirus carrying mutant gp160 greater than 1500 fold. The values for the neutralization IC50 in assay [2], in assay [5] and in assay [6] were 0.9 µg/mL, greater than 50 µg/mL and 32.2 µg/mL, respectively. Besides, the improvement of neutralization potency over NIH45-46 in assay [3] was 2000 fold; in assay [4] it was greater than 700 fold.
In the case of NIH45-46^G54F IgG (antibody), the neutralization IC50 in assay [2] was found to be 16 µg/mL.
Regarding NIH45-46 IgG (antibody), the neutralization IC50 in [7] was 0.5 µg/mL; in assay [8], 0.3 µg/mL; in assay [9] it was 0.7 µg/mL; in [10], 0.9 µg/mL; in assay [11] it was 0.05 µg/mL; in assay [12], 1.9 µg/mL. For the same substance, the neutralization IC50 in assay [13] was found to be 0.22 µg/mL; in [14] it was 0.36 µg/mL; in [15], 0.02 µg/mL; in [16], 0.05 µg/mL; in assay [17], 0.01 µg/mL; in assay [18], 0.14 µg/mL. The figures for the neutralization IC50 in assay [19], in assay [20] and in assay [21] were 0.65 µg/mL, greater than 30 µg/mL and 12.8 µg/mL, respectively.
In the case of NIH45-46 G54Y IgG (antibody), the In vitro neutralization IC80 in [22] was 0.045 µg/mL; in assay [23], 1.5 µg/mL; in assay [24], 1.83 µg/mL; in assay [25], 0.23 µg/mL; in [26], 0.045 µg/mL; in [27] it was greater than 50 µg/mL. In addition, in assay [28], the In vitro neutralization IC80 was 2.75 µg/mL.
As to NIH45-46 IgG (wild type) (antibody), the In vitro neutralization IC50 is 0.5 µg/mL in [29]; 0.7 µg/mL in [30]; 0.9 µg/mL in [31]; greater than 50 µg/mL in assay [32]; 0.05 µg/mL in [33]; 0.5 µg/mL in assay [34]. Further, the In vitro neutralization IC50 in [35] amounted to 1.9 µg/mL. The In vitro neutralization IC80 was 0.127 µg/mL in [22]; 1.71 µg/mL in assay [23]; 11.6 µg/mL in assay [24]; 0.59 µg/mL in assay [25]; 0.073 µg/mL in assay [26]; greater than 50 µg/mL in assay [27]. In addition, the In vitro neutralization IC80 in assay [28] came to 22.6 µg/mL.
NIH45-46 G54F IgG (antibody): the In vitro neutralization IC80 in [22] is 0.054 µg/mL; in assay [23], 1.65 µg/mL; in assay [24], 2.26 µg/mL; in assay [25], 0.3 µg/mL; in assay [26], 0.039 µg/mL; in assay [27], greater than 50 µg/mL. In addition, in assay [28], the In vitro neutralization IC80 came out at 2.75 µg/mL.
Consider NIH45-46^G54Y IgG (antibody), for which the neutralization IC50 in assay [6] was greater than 50 µg/mL.
For NIH45-46 G54W IgG (antibody), the In vitro neutralization IC80 is 0.036 µg/mL in assay [22]; 1.12 µg/mL in [23]; 0.91 µg/mL in assay [24]; 0.15 µg/mL in [25]; 0.025 µg/mL in [26]; greater than 50 µg/mL in assay [27]. The same substance registered an In vitro neutralization IC80 in [28] of 2.1 µg/mL.
